Patent publication US20020103136

How the values were obtained:
[1] = tested on: Ac-(4-trans-L-Hyp)SSChgQ-SPheol-(dAc)-VIN
[2] = tested on: Ac-4-trans-L-Hyp-SSChgQ-SS-(HCAP)-(dAc)-VIN
[3] = tested on: Ac-4-trans-L-HypSSChgQS-cyclohexylalaninol-(dAc)-VIN
[4] = tested on: Ac-4-trans-L-HypSSChgQSP(HCAP)-VIN
[5] = tested on: Ac-AbuSSChgQ-S-(HCAP)-VIN
[6] = tested on: Ac-AbuSSChgQ-SP-(HCAP)-(dAc)-VIN
[7] = tested on: Ac-SChgQ-SP-(HCAP)-(dAc)-VIN
[8] = tested on: Ac-SChgQ-SS(4-trans-L-Hyp)-(HCAP)-dAc-VIN
[9] = tested on: Ac-SChgQSS(PIP)-(HCAP)-dAc-VIN
[10] = tested on: Ac-SChgQSS-Sar-(HCAP)-dAc-VIN
[11] = tested on: Ac-SChgQSS-gammaAbu-(HCAP)-dAc-VIN
[12] = tested on: Ac-SSChgQ-SP-(HCAP)-(dAc)-VIN
[13] = tested on: Ac-SSChgQ-SSP-(HCAP)-dAc-VIN
[14] = tested on: N-hydroxyacetyl-AbuSSChgQ-SP-(HCAP)-(dAc)-VIN

free prostate specific antigen (PSA)
Time to 50% Substrate Cleavage by York PSA [1]: 25 min
Time to 50% Substrate Cleavage by York PSA [2]: 17 min
Time to 50% Substrate Cleavage by York PSA [3]: 10 min
Time to 50% Substrate Cleavage by York PSA [4]: 8 min
Substrate cleavage by York PSA at 1 hour (printed in the column 'Time to 50% Substrate Cleavage by York PSA (Min)') [5]: 1 HOUR = 28%
Time to 50% Substrate Cleavage by York PSA [6]: 18 min
Time to 50% Substrate Cleavage by York PSA [7]: 13 min
Time to 50% Substrate Cleavage by York PSA [8]: 7 min
Time to 50% Substrate Cleavage by York PSA (Ac-SChgQ-SSP-(HCAP)-VIN): 8 min
Time to 50% Substrate Cleavage by York PSA (Ac-SChgQS-Abu-(HCAP)-VIN): 60 min
Time to 50% Substrate Cleavage by York PSA (Ac-SChgQSS(HCAP)-dAc-VIN): 12 min
Time to 50% Substrate Cleavage by York PSA [9]: 22 min
Time to 50% Substrate Cleavage by York PSA [10]: 13 min
Time to 50% Substrate Cleavage by York PSA [11]: 12 min
Time to 50% Substrate Cleavage by York PSA [12]: 30 min
Time to 50% Substrate Cleavage by York PSA [13]: 8 min
Time to 50% Substrate Cleavage by York PSA [14]: 11 min
